Experimental findings from paper PMC10371147 are described below.

In experiment [1] the target is mTmc1 tagged with mRuby3 (mTmc1-mRuby3) (mouse) (UniProt Q8R4P5).
For experiment [2] the target is unchanged. The experiment can be described thus: FRET or BRET; acceptor photobleaching in living N2A cells co-transfected with mPz1-mClover3 (donor) and mTmc1-mRuby3 (acceptor), Tyrode's solution pH 7.4, region of the surface membrane.

mTmc1 tagged with mRuby3 (mTmc1-mRuby3) (mouse), sequence (Q8R4P5 whole entry): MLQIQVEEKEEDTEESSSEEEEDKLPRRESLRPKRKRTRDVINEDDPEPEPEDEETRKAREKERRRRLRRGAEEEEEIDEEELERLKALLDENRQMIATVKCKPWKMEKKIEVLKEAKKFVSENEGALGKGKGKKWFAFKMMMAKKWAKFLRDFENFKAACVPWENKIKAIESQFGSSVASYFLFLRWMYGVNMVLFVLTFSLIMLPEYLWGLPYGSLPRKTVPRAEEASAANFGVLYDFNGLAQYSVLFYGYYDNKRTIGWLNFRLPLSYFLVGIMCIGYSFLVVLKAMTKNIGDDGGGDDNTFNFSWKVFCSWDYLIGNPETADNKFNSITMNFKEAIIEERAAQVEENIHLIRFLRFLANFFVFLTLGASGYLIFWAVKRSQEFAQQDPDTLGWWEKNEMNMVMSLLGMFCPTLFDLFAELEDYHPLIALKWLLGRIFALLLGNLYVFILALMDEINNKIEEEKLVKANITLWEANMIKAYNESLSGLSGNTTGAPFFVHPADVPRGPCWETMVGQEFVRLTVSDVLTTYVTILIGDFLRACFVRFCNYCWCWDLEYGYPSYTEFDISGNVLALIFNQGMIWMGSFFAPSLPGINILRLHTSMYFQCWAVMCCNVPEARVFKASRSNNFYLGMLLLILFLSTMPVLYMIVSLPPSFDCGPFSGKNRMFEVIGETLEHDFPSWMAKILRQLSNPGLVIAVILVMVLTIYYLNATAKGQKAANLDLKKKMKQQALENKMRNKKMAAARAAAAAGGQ

In turn, “mouse Pz1 tagged with mClover3 (mPz1-mClover3), E2JF22 1-2547” displayed a block by dihydrostreptomycin (DHS) of the mechanically activated current in N2A cells co-transfected with Pz1 and Tmc1, against Pz1 alone in experiment [1] of 1000 fold. Moreover, in experiment [2], the FRET efficiency (E) amounted to 0.1.
